Assays:
EIF4A1 (human) = EIF4A1 (human) (UniProt P60842); assay: co-IP with control IgG, mass spectrometry; lysate of cells with N-FLAG B3GNT2
CCT2 (human) = CCT2 (human) (UniProt P78371); assay: as above
MSN (human) = MSN (human) (UniProt P26038); assay: as above
UGGT1 (human) = UGGT1 (human) (UniProt Q9NYU2); assay: as above
NPM1 (human) = NPM1 (human) (UniProt P06748); assay: as above
EPRS (human) = EPRS (human) (UniProt P07814); assay: as above
CCT7 (human) = CCT7 (human) (UniProt Q99832); assay: as above
RPS4X (human) = RPS4X (human) (UniProt P62701); assay: as above
ZC3HAV1 (human) = ZC3HAV1 (human) (UniProt Q7Z2W4); assay: as above
DNAJB11 (human) = DNAJB11 (human) (UniProt Q9UBS4); assay: as above
Sequence of DNAJB11 (human) (Q9UBS4 23-358 limits assumed): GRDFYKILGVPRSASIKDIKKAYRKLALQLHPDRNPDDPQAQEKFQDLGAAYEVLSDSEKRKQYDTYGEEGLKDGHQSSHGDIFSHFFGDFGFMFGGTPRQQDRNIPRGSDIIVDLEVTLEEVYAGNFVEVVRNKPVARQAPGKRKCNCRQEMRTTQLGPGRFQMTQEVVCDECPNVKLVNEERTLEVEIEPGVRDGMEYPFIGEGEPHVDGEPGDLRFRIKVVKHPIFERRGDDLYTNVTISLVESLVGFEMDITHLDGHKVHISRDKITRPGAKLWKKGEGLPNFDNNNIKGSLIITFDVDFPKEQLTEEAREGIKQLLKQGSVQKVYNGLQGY

RPS27 (human) = RPS27 (human) (UniProt P42677); assay: as above
STAU2 (human) = STAU2 (human) (UniProt Q9NUL3); assay: as above
Sequence of STAU2 (human) (Q9NUL3 whole entry): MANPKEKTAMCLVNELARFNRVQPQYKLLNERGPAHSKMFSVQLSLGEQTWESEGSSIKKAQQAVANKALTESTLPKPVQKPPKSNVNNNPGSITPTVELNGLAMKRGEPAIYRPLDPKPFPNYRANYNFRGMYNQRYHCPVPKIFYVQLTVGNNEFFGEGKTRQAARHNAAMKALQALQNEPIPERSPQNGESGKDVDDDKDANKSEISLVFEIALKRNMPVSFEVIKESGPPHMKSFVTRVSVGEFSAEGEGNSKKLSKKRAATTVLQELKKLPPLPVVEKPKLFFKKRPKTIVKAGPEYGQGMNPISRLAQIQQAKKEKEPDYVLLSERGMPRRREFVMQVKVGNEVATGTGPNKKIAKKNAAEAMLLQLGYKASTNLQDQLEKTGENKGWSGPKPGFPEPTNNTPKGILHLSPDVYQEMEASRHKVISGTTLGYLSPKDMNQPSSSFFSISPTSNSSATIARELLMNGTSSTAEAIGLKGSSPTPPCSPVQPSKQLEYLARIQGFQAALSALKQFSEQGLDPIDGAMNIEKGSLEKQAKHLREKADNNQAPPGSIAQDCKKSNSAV

MARS (human) = MARS (human) (UniProt P56192); assay: as above
Sequence of MARS (human) (P56192 whole entry): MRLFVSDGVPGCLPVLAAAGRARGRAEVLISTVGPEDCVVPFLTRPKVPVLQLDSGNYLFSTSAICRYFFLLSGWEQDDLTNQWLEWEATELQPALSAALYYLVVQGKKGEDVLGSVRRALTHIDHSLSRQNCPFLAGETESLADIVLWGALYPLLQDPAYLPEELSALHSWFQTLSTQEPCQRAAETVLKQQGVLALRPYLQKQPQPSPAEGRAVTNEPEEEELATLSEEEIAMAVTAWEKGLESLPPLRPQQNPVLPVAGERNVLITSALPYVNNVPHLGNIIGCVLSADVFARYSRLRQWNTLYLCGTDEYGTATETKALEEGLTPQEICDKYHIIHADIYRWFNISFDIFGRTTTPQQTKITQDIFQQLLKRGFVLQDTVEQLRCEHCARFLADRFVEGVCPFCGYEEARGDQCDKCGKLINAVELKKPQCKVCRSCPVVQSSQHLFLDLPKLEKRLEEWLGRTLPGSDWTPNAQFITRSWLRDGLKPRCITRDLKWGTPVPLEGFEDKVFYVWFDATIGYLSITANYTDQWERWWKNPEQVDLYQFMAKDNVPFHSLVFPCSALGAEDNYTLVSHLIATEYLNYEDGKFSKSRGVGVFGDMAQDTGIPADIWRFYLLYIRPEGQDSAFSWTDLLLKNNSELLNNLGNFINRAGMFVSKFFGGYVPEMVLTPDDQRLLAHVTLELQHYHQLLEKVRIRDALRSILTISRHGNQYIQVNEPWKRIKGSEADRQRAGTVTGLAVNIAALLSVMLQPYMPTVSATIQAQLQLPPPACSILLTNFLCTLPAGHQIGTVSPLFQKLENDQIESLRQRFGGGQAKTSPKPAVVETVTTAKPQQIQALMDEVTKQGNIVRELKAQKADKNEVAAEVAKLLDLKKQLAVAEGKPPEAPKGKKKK

SEL1L (human) = SEL1L (human) (UniProt Q9UBV2); assay: as above
Sequence of SEL1L (human) (Q9UBV2 22-794 limits assumed): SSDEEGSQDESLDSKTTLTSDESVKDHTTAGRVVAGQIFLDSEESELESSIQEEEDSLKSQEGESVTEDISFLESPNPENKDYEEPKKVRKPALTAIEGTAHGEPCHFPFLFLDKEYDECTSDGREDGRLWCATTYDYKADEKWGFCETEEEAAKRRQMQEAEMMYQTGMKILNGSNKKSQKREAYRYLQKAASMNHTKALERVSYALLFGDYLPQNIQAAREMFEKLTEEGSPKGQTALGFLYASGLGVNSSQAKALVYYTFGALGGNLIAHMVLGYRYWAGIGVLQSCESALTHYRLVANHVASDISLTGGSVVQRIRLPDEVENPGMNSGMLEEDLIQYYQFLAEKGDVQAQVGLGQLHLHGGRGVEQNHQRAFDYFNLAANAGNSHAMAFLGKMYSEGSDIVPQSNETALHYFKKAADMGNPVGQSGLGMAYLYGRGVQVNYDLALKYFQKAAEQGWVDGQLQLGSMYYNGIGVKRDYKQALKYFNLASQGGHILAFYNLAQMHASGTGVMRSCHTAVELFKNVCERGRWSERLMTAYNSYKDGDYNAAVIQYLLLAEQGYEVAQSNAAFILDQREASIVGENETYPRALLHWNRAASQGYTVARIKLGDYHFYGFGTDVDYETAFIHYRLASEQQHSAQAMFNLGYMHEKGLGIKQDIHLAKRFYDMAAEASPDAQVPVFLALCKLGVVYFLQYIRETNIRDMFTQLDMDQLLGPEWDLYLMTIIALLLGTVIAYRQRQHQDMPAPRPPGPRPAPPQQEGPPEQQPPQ

MYO1C (human) = MYO1C (human) (UniProt O00159); assay: as above
GALNT2 (human) = GALNT2 (human) (UniProt Q10471); assay: as above
RARS (human) = RARS (human) (UniProt P54136); assay: as above
SLC27A4 (human) = SLC27A4 (human) (UniProt Q6P1M0); assay: as above
Sequence of SLC27A4 (human) (Q6P1M0 whole entry): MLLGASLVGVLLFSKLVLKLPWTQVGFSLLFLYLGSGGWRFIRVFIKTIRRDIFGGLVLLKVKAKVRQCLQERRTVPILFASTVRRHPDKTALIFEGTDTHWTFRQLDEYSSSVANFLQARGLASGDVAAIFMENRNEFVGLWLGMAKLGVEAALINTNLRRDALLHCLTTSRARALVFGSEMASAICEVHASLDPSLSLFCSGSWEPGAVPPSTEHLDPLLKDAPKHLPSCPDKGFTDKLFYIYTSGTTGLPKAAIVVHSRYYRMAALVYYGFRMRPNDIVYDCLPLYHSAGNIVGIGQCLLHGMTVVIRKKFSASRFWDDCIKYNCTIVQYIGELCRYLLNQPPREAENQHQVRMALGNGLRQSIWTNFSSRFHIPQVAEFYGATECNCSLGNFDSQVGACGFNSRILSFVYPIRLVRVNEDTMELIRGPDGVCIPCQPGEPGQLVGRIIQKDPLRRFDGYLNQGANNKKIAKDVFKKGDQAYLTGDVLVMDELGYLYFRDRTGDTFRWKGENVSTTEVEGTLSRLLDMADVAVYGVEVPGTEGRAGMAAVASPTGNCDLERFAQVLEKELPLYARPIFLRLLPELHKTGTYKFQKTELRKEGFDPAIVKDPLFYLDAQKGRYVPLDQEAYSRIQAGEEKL

RRP12 (human) = RRP12 (human) (UniProt Q5JTH9); assay: as above
RPL32 (human) = RPL32 (human) (UniProt P62910); assay: as above
SDF4 (human) = SDF4 (human) (UniProt Q9BRK5); assay: as above
ILF3 (human) = ILF3 (human) (UniProt Q12906); assay: as above
IPO13 (human) = IPO13 (human) (UniProt O94829); assay: as above
GAPDH (human) = GAPDH (human) (UniProt P04406); assay: as above
Sequence of GAPDH (human) (P04406 2-335 limits assumed): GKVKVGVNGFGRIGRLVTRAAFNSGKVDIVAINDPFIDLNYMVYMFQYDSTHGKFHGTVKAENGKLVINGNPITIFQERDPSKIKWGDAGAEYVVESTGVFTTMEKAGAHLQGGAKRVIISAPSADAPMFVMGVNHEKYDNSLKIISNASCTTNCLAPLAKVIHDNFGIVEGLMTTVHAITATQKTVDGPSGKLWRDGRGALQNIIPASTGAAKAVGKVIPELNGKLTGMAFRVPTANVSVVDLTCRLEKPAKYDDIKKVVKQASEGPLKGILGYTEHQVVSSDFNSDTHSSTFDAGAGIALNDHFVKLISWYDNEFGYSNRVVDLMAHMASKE

HIST1H1E = HIST1H1E (UniProt P10412); assay: co-IP, anti-FLAG, C-FLAG B3GNT2 cell lysate, mass spectrometry
RPS16 = RPS16 (UniProt P62249); assay: as above
MTCH2 = MTCH2 (UniProt Q9Y6C9); assay: as above
TNKS1BP1 = TNKS1BP1 (UniProt Q9C0C2); assay: as above
SRSF3 = SRSF3 (UniProt P84103); assay: as above
Sequence of SRSF3 (P84103 whole entry): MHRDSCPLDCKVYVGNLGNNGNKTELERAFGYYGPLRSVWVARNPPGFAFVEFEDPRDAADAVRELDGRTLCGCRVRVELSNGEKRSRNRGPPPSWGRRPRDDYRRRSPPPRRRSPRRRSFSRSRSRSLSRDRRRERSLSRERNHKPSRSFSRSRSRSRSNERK

RPL37A = RPL37A (UniProt P61513); assay: as above
DNAJA2 = DNAJA2 (UniProt O60884); assay: as above
TAGLN = TAGLN (UniProt Q01995); assay: as above
RPS8 = RPS8 (UniProt P62241); assay: as above
RPL19 = RPL19 (UniProt P84098); assay: as above
RPL35 = RPL35 (UniProt P42766); assay: as above
TXN = TXN (UniProt P10599); assay: as above
RPL22 = RPL22 (UniProt P35268); assay: as above
DDX20 = DDX20 (UniProt Q9UHI6); assay: as above
Sequence of DDX20 (Q9UHI6 whole entry): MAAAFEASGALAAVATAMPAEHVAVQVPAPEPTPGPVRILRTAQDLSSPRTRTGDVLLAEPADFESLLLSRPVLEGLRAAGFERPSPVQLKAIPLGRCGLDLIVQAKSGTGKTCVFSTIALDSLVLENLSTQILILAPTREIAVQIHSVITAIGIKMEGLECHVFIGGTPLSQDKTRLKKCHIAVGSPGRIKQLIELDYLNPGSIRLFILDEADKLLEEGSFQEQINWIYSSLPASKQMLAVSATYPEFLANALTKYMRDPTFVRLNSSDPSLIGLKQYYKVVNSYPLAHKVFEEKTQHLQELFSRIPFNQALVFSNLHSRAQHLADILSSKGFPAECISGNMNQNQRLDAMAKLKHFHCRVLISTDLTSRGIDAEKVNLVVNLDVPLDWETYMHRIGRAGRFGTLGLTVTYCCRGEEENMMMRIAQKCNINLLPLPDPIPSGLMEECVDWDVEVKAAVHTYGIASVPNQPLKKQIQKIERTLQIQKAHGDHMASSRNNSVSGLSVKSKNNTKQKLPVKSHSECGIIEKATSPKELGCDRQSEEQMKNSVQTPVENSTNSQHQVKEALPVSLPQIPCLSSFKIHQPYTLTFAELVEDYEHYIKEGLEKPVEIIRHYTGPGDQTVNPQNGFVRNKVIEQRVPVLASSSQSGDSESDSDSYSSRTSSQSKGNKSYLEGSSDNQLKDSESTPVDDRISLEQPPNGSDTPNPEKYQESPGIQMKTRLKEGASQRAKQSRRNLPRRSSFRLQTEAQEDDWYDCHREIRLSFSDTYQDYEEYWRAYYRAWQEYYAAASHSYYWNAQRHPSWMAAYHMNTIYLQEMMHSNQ

Sequence of EIF4A1 (human) (P60842 2-406 limits assumed): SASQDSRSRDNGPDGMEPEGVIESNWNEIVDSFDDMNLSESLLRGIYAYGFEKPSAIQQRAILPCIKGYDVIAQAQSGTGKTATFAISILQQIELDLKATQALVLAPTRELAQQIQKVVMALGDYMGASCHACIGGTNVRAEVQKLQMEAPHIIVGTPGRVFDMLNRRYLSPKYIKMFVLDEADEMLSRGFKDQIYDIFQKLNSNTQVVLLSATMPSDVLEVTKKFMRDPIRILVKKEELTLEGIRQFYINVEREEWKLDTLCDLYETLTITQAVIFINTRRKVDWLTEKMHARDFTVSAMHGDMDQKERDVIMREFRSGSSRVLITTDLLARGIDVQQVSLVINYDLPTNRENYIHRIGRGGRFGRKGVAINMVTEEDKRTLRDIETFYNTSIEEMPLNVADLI

In the case of “IgG control (Millipore Sigma 12-371) (antibody)”, the co-IP mass spectrometry count (EIF4A1 (human)) is reported as 0, the co-IP mass spectrometry count (CCT2 (human)) is reported as 0 and the co-IP mass spectrometry count (MSN (human)) is reported as 0. For the same substance, the co-IP mass spectrometry count (UGGT1 (human)) was 0, the co-IP mass spectrometry count (NPM1 (human)) was 0 and the co-IP mass spectrometry count (EPRS (human)) was 0. The co-IP mass spectrometry count (CCT7 (human)) was 0, the co-IP mass spectrometry count (RPS4X (human)) was 12 and the co-IP mass spectrometry count (ZC3HAV1 (human)) was 0. It also gave a co-IP mass spectrometry count (DNAJB11 (human)) of 0, a co-IP mass spectrometry count (RPS27 (human)) of 0 and a co-IP mass spectrometry count (STAU2 (human)) of 0. The co-IP mass spectrometry count (MARS (human)) was 0, the co-IP mass spectrometry count (SEL1L (human)) was 0 and the co-IP mass spectrometry count (MYO1C (human)) was 0. For the same substance, the co-IP mass spectrometry count (GALNT2 (human)) was 0, the co-IP mass spectrometry count (RARS (human)) was 0 and the co-IP mass spectrometry count (SLC27A4 (human)) was 0. The co-IP mass spectrometry count (RRP12 (human)) was 0, the co-IP mass spectrometry count (RPL32 (human)) was 0 and the co-IP mass spectrometry count (SDF4 (human)) was 0. For the same substance, the co-IP mass spectrometry count (ILF3 (human)) was 0, the co-IP mass spectrometry count (IPO13 (human)) was 0 and the co-IP mass spectrometry count (GAPDH (human)) was 11.
Substance “C-terminal FLAG tagged B3GNT2 (from UniProt Q9NY97 1-397) (enzyme)” has a co-IP mass spectrometry count (HIST1H1E) of 6, a co-IP mass spectrometry count (RPS16) of 20 and a co-IP mass spectrometry count (MTCH2) of 2. For the same substance, the co-IP mass spectrometry count (TNKS1BP1) was 8, the co-IP mass spectrometry count (SRSF3) was 7 and the co-IP mass spectrometry count (RPL37A) was 7. It also gave a co-IP mass spectrometry count (DNAJA2) of 3, a co-IP mass spectrometry count (TAGLN) of 3 and a co-IP mass spectrometry count (RPS8) of 17. The co-IP mass spectrometry count (RPL19) was 11, the co-IP mass spectrometry count (RPL35) was 5 and the co-IP mass spectrometry count (TXN) was 3. For the same substance, the co-IP mass spectrometry count (RPL22) was 5 and the co-IP mass spectrometry count (DDX20) was 6.

Source: US20240261333A1, “NOVEL TARGETS FOR ENHANCING ANTI-TUMOR IMMUNITY” (THE BROAD INSTITUTE, INC., priority 2021, published 2024)
